Source: the Immune Epitope Database (IEDB)

Tests used:
HLA-A*68:02 [1] = experiment: IEDB peptide-MHC binding, purified MHC/competitive/fluorescence; filed as Kd, often an IC50 or EC50 that approximates it; ≥ and ≤ were set here for values at or beyond the usual limits of such assays; details: source organism: Human immunodeficiency virus 1
HLA-A*26:02 = experiment: as above; details: source organism: Human immunodeficiency virus 1
HLA-A*02:01 [2] = experiment: as above
HLA-B*39:01 = experiment: as above
HLA-B*15:17 = experiment: as above
HLA-B*15:01 [3] = experiment: as above
HLA-B*51:01 = experiment: as above
HLA-B*46:01 = experiment: as above
HLA-A*69:01 = experiment: as above
HLA-B*27:03 = experiment: as above
HLA-B*18:01 = experiment: as above
HLA-A*26:01 = experiment: as above
HLA-B*57:01 = experiment: as above
HLA-A*24:03 = experiment: IEDB peptide-MHC binding, purified MHC/direct/fluorescence; filed as Kd, often an IC50 or EC50 that approximates it; ≥ and ≤ were set here for values at or beyond the usual limits of such assays
HLA-A*01:01 = experiment: as above
HLA-A*02:16 = experiment: as above
HLA-A*02:19 = experiment: as above
HLA-A*02:11 = experiment: as above
HLA-A*68:02 [4] = experiment: as above
HLA-A*02:12 = experiment: as above
HLA-A*02:03 [5] = experiment: as above
HLA-A*03:01 [6] = experiment: as above
HLA-A*29:02 = experiment: as above
HLA-A*23:01 = experiment: as above
HLA-A*02:03 [7] = experiment: IEDB peptide-MHC binding, purified MHC/competitive/fluorescence; filed as Kd, often an IC50 or EC50 that approximates it; ≥ and ≤ were set here for values at or beyond the usual limits of such assays; details: source organism: Human immunodeficiency virus 1
HLA-B*15:01 [8] = experiment: IEDB peptide-MHC binding, purified MHC/competitive/fluorescence; ≥ and ≤ were set here for values at or beyond the usual limits of such assays
HLA-B*07:02 = experiment: as above
HLA-A*02:01 [9] = experiment: as above
HLA-B*08:01 = experiment: IEDB peptide-MHC binding, purified MHC/direct/fluorescence; filed as Kd, often an IC50 or EC50 that approximates it; ≥ and ≤ were set here for values at or beyond the usual limits of such assays; details: source organism: Rio Mamore hantavirus
HLA-B*40:01 = experiment: as above; details: source organism: Sudan ebolavirus - Uganda (2000)
HLA-A*24:02 = experiment: IEDB peptide-MHC binding, purified MHC/competitive/fluorescence; ≥ and ≤ were set here for values at or beyond the usual limits of such assays
HLA-A*03:01 [10] = experiment: IEDB peptide-MHC binding, purified MHC/competitive/fluorescence; filed as Kd, often an IC50 or EC50 that approximates it; ≥ and ≤ were set here for values at or beyond the usual limits of such assays; details: source organism: Orthohantavirus sinnombreense
HLA-A*31:01 = experiment: as above; details: source organism: Orthohantavirus sinnombreense
HLA-A*02:01 [11] = experiment: IEDB peptide-MHC binding, purified MHC/direct/fluorescence; filed as Kd, often an IC50 or EC50 that approximates it; ≥ and ≤ were set here for values at or beyond the usual limits of such assays; details: source organism: Sudan ebolavirus - Maleo (1979)
HLA-A*11:01 = experiment: IEDB peptide-MHC binding, purified MHC/competitive/fluorescence; ≥ and ≤ were set here for values at or beyond the usual limits of such assays
HLA-A*03:01 [12] = experiment: as above
[13] = source organism: Human immunodeficiency virus 1
[14] = source organism: Zaire ebolavirus
[15] = source organism: Ravn virus - Ravn, Kenya, 1987
[16] = source organism: Lechiguanas virus
[17] = source organism: Limestone Canyon virus
[18] = source organism: Sudan ebolavirus
[19] = source organism: Orthohantavirus sinnombreense
[20] = source organism: Reston ebolavirus
[21] = source organism: Vaccinia virus

Sequence: DIKDTKEAL
- Kd (HLA-A*68:02 [1]): 1.7 µM
- Kd (HLA-A*26:02): ≥ 20 µM
- Kd (HLA-A*02:01 [2]; [13]): ≥ 20 µM
- Kd (HLA-B*39:01; [13]): ≥ 20 µM

Sequence: DLEKYNLAF
- Kd (HLA-B*15:17; [14]): ≥ 20 µM
- Kd (HLA-B*15:01 [3]; [14]): ≥ 20 µM
- Kd (HLA-B*51:01; [14]): ≥ 20 µM
- Kd (HLA-B*46:01; [14]): ≥ 20 µM
- Kd (HLA-A*69:01; [14]): ≥ 20 µM
- Kd (HLA-A*02:01 [2]; [14]): ≥ 20 µM
- Kd (HLA-B*27:03; [14]): ≥ 20 µM
- Kd (HLA-B*39:01; [14]): ≥ 20 µM
- Kd (HLA-B*18:01; [14]): ≥ 20 µM
- Kd (HLA-A*26:01; [14]): ≥ 20 µM
- Kd (HLA-B*57:01; [14]): ≥ 20 µM
- Kd (HLA-A*24:03; [15]): ≥ 20 µM
- Kd (HLA-A*01:01; [14]): ≥ 20 µM
- Kd (HLA-A*02:16; [15]): ≥ 20 µM
- Kd (HLA-A*02:19; [15]): ≥ 20 µM
- Kd (HLA-A*02:11; [15]): ≥ 20 µM
- Kd (HLA-A*68:02 [4]; [15]): ≥ 20 µM
- Kd (HLA-A*02:12; [15]): ≥ 20 µM
- Kd (HLA-A*02:03 [5]; [15]): ≥ 20 µM
- Kd (HLA-A*03:01 [6]; [15]): ≥ 20 µM
- Kd (HLA-A*29:02; [15]): ≥ 20 µM
- Kd (HLA-A*23:01; [15]): ≥ 20 µM

Sequence: EELKSLFNTI
- Kd (HLA-A*68:02 [1]): 1.18 µM
- Kd (HLA-A*02:03 [7]): 1.54 µM

Sequence: FIHIPGDTL
- IC50 (HLA-B*15:01 [8]; source organism: Variola virus): ≥ 80.7 µM
- IC50 (HLA-B*07:02; source organism: Variola virus): 47 µM
- IC50 (HLA-A*02:01 [9]; source organism: Variola virus): 2.55 µM

Sequence: KLKSVGKAY
- Kd (HLA-B*51:01; [16]): ≥ 20 µM
- Kd (HLA-A*69:01; [16]): ≥ 20 µM
- Kd (HLA-A*02:01 [2]; [16]): ≥ 20 µM
- Kd (HLA-B*27:03; [16]): ≥ 20 µM
- Kd (HLA-B*39:01; [16]): ≥ 20 µM
- Kd (HLA-B*18:01; [16]): ≥ 20 µM
- Kd (HLA-A*26:01; [16]): ≥ 20 µM
- Kd (HLA-B*57:01; [16]): ≥ 20 µM
- Kd (HLA-A*24:03; [17]): ≥ 20 µM
- Kd (HLA-A*02:16; [17]): ≥ 20 µM
- Kd (HLA-A*02:19; [17]): ≥ 20 µM
- Kd (HLA-A*02:11; [17]): ≥ 20 µM
- Kd (HLA-A*68:02 [4]; [17]): ≥ 20 µM
- Kd (HLA-B*08:01): ≥ 20 µM
- Kd (HLA-A*02:12; [17]): ≥ 20 µM
- Kd (HLA-A*02:03 [5]; [17]): ≥ 20 µM
- Kd (HLA-A*03:01 [6]; source organism: Rio Mamore hantavirus): 0.536 µM
- Kd (HLA-A*29:02; [17]): ≥ 20 µM

Sequence: LESLTDREL
- Kd (HLA-B*15:17; [14]): ≥ 20 µM
- Kd (HLA-B*15:01 [3]; [14]): ≥ 20 µM
- Kd (HLA-B*51:01; [14]): ≥ 20 µM
- Kd (HLA-B*46:01; [14]): ≥ 20 µM
- Kd (HLA-A*69:01; [14]): ≥ 20 µM
- Kd (HLA-A*02:01 [2]; [14]): ≥ 20 µM
- Kd (HLA-B*27:03; [14]): ≥ 20 µM
- Kd (HLA-B*39:01; [14]): ≥ 20 µM
- Kd (HLA-B*18:01; [14]): ≥ 20 µM
- Kd (HLA-A*26:01; [14]): ≥ 20 µM
- Kd (HLA-B*57:01; [14]): ≥ 20 µM
- Kd (HLA-A*24:03; [14]): ≥ 20 µM
- Kd (HLA-B*40:01): 0.118 µM
- Kd (HLA-A*02:16; [14]): ≥ 20 µM
- Kd (HLA-A*02:19; [14]): ≥ 20 µM
- Kd (HLA-A*02:11; [14]): ≥ 20 µM
- Kd (HLA-A*68:02 [4]; [14]): ≥ 20 µM
- Kd (HLA-A*02:12; [14]): ≥ 20 µM
- Kd (HLA-A*02:03 [5]; [14]): ≥ 20 µM
- Kd (HLA-A*03:01 [6]; [14]): ≥ 20 µM

Sequence: RPHTPQFLF
- IC50 (HLA-B*07:02; [18]): 1.46 µM
- IC50 (HLA-A*24:02; [18]): 1.03 µM

Sequence: RTLGVFRYK
- Kd (HLA-B*15:01 [3]; [19]): ≥ 20 µM
- Kd (HLA-B*51:01; [19]): ≥ 20 µM
- Kd (HLA-B*46:01; [19]): ≥ 20 µM
- Kd (HLA-A*69:01; [19]): ≥ 20 µM
- Kd (HLA-B*39:01; [19]): ≥ 20 µM
- Kd (HLA-B*18:01; [19]): ≥ 20 µM
- Kd (HLA-A*03:01 [10]): 0.109 µM
- Kd (HLA-A*26:01; [19]): ≥ 20 µM
- Kd (HLA-A*31:01): 0.0062 µM
- Kd (HLA-A*02:16; [17]): ≥ 20 µM
- Kd (HLA-A*02:19; [17]): ≥ 20 µM
- Kd (HLA-A*68:02 [4]; [17]): ≥ 20 µM
- Kd (HLA-A*02:12; [17]): ≥ 20 µM
- Kd (HLA-A*02:03 [5]; [17]): ≥ 20 µM
- Kd (HLA-A*29:02; [17]): ≥ 20 µM

Sequence: SMHYKLDEV
- Kd (HLA-B*15:17; [14]): ≥ 20 µM
- Kd (HLA-B*15:01 [3]; [14]): ≥ 20 µM
- Kd (HLA-B*51:01; [14]): ≥ 20 µM
- Kd (HLA-B*46:01; [14]): ≥ 20 µM
- Kd (HLA-A*69:01; [14]): ≥ 20 µM
- Kd (HLA-B*27:03; [14]): ≥ 20 µM
- Kd (HLA-B*39:01; [14]): ≥ 20 µM
- Kd (HLA-B*18:01; [14]): ≥ 20 µM
- Kd (HLA-A*26:01; [14]): ≥ 20 µM
- Kd (HLA-B*57:01; [14]): ≥ 20 µM
- Kd (HLA-A*24:03; [14]): ≥ 20 µM
- Kd (HLA-A*02:01 [11]): 0.0151 µM
- Kd (HLA-A*03:01 [6]; [14]): ≥ 20 µM
- Kd (HLA-A*29:02; [14]): ≥ 20 µM
- Kd (HLA-A*23:01; [14]): ≥ 20 µM

Sequence: TGFGTNETE
- IC50 (HLA-B*07:02; [14]): ≥ 221 µM

Sequence: TLRKERLAK
- IC50 (HLA-B*15:01 [8]; [14]): ≥ 171 µM
- IC50 (HLA-B*07:02; [14]): ≥ 119 µM
- IC50 (HLA-A*11:01; [14]): 4.25 µM
- IC50 (HLA-A*03:01 [12]; [14]): 0.509 µM

Sequence: TPSATTAAG
- IC50 (HLA-B*07:02; [14]): ≥ 144 µM

Sequence: TSPRMLTPI
- IC50 (HLA-B*07:02; [14]): ≥ 260 µM
- IC50 (HLA-A*02:01 [9]; [14]): ≥ 684 µM
- IC50 (HLA-A*24:02; [14]): 3.05 µM

Sequence: TTDDSTSYY
- Kd (HLA-B*15:17; [20]): ≥ 20 µM
- Kd (HLA-B*15:01 [3]; [20]): ≥ 20 µM
- Kd (HLA-B*51:01; [20]): ≥ 20 µM
- Kd (HLA-B*46:01; [20]): ≥ 20 µM
- Kd (HLA-A*69:01; [20]): ≥ 20 µM
- Kd (HLA-A*02:01 [2]; [20]): ≥ 20 µM
- Kd (HLA-B*27:03; [20]): ≥ 20 µM
- Kd (HLA-B*39:01; [20]): ≥ 20 µM
- Kd (HLA-B*18:01; [20]): ≥ 20 µM
- Kd (HLA-A*26:01; [20]): ≥ 20 µM
- Kd (HLA-B*57:01; [20]): ≥ 20 µM
- Kd (HLA-A*24:03; [20]): ≥ 20 µM
- Kd (HLA-A*01:01; source organism: Reston ebolavirus - Reston): 0.0122 µM
- Kd (HLA-A*02:16; [20]): ≥ 20 µM
- Kd (HLA-A*02:19; [20]): ≥ 20 µM
- Kd (HLA-A*02:11; [20]): ≥ 20 µM
- Kd (HLA-A*68:02 [4]; [20]): ≥ 20 µM
- Kd (HLA-A*02:12; [20]): ≥ 20 µM
- Kd (HLA-A*02:03 [5]; [20]): ≥ 20 µM
- Kd (HLA-A*03:01 [6]; [20]): ≥ 20 µM
- Kd (HLA-A*23:01; [20]): ≥ 20 µM

Sequence: YIKNIGNTK
- IC50 (HLA-B*07:02; [21]): ≥ 745 µM
- IC50 (HLA-A*11:01; [21]): 30.5 µM
- IC50 (HLA-A*03:01 [12]; [21]): 6.51 µM
